One block for each molecule: values may come before it.
Key:
[1] = molecular target: T1, PFK1 (Homo sapiens, UniProt P17858); assay: PFK1 oligomerization by native gel electrophoresis; settings: 50 nM F-2,6-BP, 50° C. for 30 min (FIG. 21)
T1 construct: made in house
T1 sequence (P17858 1-780): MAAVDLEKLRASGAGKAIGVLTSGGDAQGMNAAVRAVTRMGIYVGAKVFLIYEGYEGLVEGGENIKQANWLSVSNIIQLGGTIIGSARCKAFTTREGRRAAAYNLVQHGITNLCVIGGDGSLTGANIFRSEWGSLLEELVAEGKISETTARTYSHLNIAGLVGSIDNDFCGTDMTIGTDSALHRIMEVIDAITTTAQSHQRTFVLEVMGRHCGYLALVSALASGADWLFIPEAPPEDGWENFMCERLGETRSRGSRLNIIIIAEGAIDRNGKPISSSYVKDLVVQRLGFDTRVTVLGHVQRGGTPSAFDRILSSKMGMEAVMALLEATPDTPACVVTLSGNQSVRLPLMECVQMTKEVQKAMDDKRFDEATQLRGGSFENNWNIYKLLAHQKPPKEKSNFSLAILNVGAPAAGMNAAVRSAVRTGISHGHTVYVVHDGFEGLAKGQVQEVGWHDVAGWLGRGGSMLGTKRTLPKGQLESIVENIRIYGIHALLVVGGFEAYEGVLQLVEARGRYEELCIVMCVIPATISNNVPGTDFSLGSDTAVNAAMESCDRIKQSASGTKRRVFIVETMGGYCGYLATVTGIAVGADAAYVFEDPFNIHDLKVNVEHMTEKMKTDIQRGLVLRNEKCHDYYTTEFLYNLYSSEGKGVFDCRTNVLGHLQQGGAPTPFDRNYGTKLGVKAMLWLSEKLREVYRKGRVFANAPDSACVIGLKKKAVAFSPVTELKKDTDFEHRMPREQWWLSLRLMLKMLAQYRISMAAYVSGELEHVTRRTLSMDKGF
Procedure: Flag-tagged PFK1 (L isoform) was transiently expressed in 293T cells with or without co-expression of HA-tagged OGT. After 36 h, Flag-tagged PFK1 was isolated from the lysate using Flag M2 immunoaffinity resin and eluted with a 3 Å˜Flag peptide as described above. The eluent was concentrated using Amicon Ultra Centrifugal Filters (10-kD molecular weight cutoff). Similarly, 293T cells expressing Flag-tagged PFK1 were treated with PUGNAc (100 μM, 12 h) or cultured under hypoxic conditions (0.5% O2, 5% CO2, and 94.5% N2) at 37° C. for 24 h, before protein isolation. As a control, heat treatment of PFK1 in the presence or absence of 50 nM F-2,6-BP was performed at 50° C. for 30 min. The proteins were then subjected to native gel electrophoresis (Bio-Rad) and visualized by Coomassie blue staining as described above.

[2] = tested on: H1299, A549, or 293T cells; assay: Cell viability by trypan blue exclusion after PUGNAc treatment; assay type: cell-based, human; settings: PUGNAc 100 μM for 9 h
[3] = tested on: PFK1; assay: Analysis of PFK1 glycosylation (chemoenzymatic labeling, immunoblot); assay type: cell-based, human; settings: 293T cells (FIG. 14)
Procedure: To carry out chemoenzymatic labeling and biotinylation of proteins in cell lysates, cell lines and tissues were first lysed in lysis buffer (1% SDS, 50 mM Tris-HCl, pH 7.5, 100 mM NaCl, 10 μM PUGNAc, and Complete™ protease inhibitors (Roche)). The cell lysate (400 μg) was then labeled according to the Click-iT O-GlcNAc Enzymatic Labeling System protocol (Invitrogen) and conjugated with an alkyne-biotin compound as per the Click-iT Protein Analysis Detection Kit protocol (Invitrogen). Control experiments were carried out in parallel in the absence of the labeling enzyme GalT. […] To quantify the percentage of glycosylation, the intensity of the band eluted from resin (the glycosylated protein fraction) and the band from the input (the total protein) were measured. […] The percentage of glycosylation on Flag-tagged PFK1 was determined by using an antibody to Flag. To quantify the percentage of glycosylation, the intensity of the PEG-shifted band (the glycosylated protein fraction) and the unshifted band (the non-glycosylated protein fraction) were measured and the ratio of the intensity of the glycosylated protein fraction over the intensity of the total protein (glycosylated protein fraction plus non-glycosylated protein fraction) was taken as the glycosylation stoichiometry.

[4] = molecular target: T2, PFK1 (Homo sapiens, UniProt P17858); assay: PFK1 enzymatic assay; assay type: biochemical
T2 construct: made in house
T2 sequence (P17858 2-780): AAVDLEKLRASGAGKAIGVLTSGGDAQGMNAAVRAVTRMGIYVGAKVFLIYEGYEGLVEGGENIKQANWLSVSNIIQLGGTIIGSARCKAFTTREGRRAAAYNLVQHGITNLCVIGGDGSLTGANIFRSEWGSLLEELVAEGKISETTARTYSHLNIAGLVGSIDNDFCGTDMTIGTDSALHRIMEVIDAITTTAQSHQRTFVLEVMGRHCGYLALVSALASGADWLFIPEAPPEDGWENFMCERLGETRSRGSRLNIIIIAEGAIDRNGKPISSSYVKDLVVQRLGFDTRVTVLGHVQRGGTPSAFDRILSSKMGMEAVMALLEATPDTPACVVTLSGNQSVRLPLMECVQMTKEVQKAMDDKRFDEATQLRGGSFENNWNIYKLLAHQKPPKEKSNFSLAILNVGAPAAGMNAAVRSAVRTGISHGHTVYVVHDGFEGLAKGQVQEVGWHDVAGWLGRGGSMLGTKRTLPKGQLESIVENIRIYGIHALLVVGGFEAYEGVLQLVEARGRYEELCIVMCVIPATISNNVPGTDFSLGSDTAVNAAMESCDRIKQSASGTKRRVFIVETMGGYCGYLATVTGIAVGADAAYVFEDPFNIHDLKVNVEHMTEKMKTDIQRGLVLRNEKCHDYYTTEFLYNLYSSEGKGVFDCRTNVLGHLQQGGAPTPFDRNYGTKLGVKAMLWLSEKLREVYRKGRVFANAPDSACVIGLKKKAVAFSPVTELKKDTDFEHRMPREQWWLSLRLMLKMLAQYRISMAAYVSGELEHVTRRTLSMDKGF
Procedure: In order to measure PFK1 activity, a reaction was performed using either cell lysate (20 μg) or recombinant purified PFK1 (0.1 μg) in 1 ml of reaction buffer containing 50 mM Tris-HCl pH 7.5, 100 mM KCl, 5 mM MgCl2, 1 mM ATP, 0.2 mM NADH, 5 mM Na2HPO4, 0.1 mM AMP, 1 mM NH4Cl, 5 mM fructose-6-phosphate, 5 U of triose phosphate isomerase (Sigma-Aldrich), 1 U of aldolase (Sigma-Aldrich) and 1 U of α-glycerophosphate dehydrogenase (Sigma-Aldrich). Absorbance was recorded at 340 nm at room temperature every 15 s for 10 min using a Uvikon UV-Vis spectrophotometer (Research Instruments International). One unit of PFK1 activity is defined as the amount of enzyme that catalyzes the conversion of 1 μmol of fructose-6-phosphate to fructose-1,6-bisphosphate per min.
In order to determine the activation of PFK1 by F-2,6-BP (Sigma-Aldrich) over the indicated concentrations, reactions were performed in similar buffer conditions as described above except that an inhibitory concentration of ATP (3 mM) was used. […]
293T cells were transiently transfected with Flag-tagged PFKL, Myc-tagged PFKP, or Myc-tagged PFKM. […] Glycosylation levels were analyzed by chemoenzymatic labeling with a 5-kD mass tag, and PFK1 activities were measured on the purified proteins as described above.

Molecule: O=P(O)(O)OC[C@H]1O[C@@](CO)(OP(=O)(O)O)[C@@H](O)[C@@H]1O [F-2,6-BP, fructose-2,6-bisphosphate]
rescue of reduction of PFK1 oligomerization state by heat denaturation [1]: partial rescue

Molecule: CC(=O)N[C@H]1/C(=N/OC(=O)Nc2ccccc2)O[C@H](CO)[C@@H](O)[C@@H]1O [PUGNAc, O-(2-acetamido-2-deoxy-D-glucopyranosylidene) amino Nphenylcarbamate]
effect on cell viability [2]: did not affect cell viability

PFK1 activity under hypoxia ([4]; expressed in 293T cells, hypoxic vs normoxic (FIG. 2A)): not significantly changed
B1: S529A PFK1: modified PFK-1 polypeptide with serine to alanine substitution at position 529 (SEQ ID NO: 2) (protein)
chain: MAAVDLEKLRASGAGKAIGVLTSGGDAQGMNAAVRAVTRMGIYVGAKVFLIYEGYEGLVEGGENIKQANWLSVSNIIQLGGTIIGSARCKAFTTREGRRAAAYNLVQHGITNLCVIGGDGSLTGANIFRSEWGSLLEELVAEGKISETTARTYSHLNIAGLVGSIDNDFCGTDMTIGTDSALHRIMEVIDAITTTAQSHQRTFVLEVMGRHCGYLALVSALASGADWLFIPEAPPEDGWENFMCERLGETRSRGSRLNIIIIAEGAIDRNGKPISSSYVKDLVVQRLGFDTRVTVLGHVQRGGTPSAFDRILSSKMGMEAVMALLEATPDTPACVVTLSGNQSVRLPLMECVQMTKEVQKAMDDKRFDEATQLRGGSFENNWNIYKLLAHQKPPKEKSNFSLAILNVGAPAAGMNAAVRSAVRTGISHGHTVYVVHDGFEGLAKGQVQEVGWHDVAGWLGRGGSMLGTKRTLPKGQLESIVENIRIYGIHALLVVGGFEAYEGVLQLVEARGRYEELCIVMCVIPATIANNVPGTDFSLGSDTAVNAAMESCDRIKQSASGTKRRVFIVETMGGYCGYLATVTGIAVGADAAYVFEDPFNIHDLKVNVEHMTEKMKTDIQRGLVLRNEKCHDYYTTEFLYNLYSSEGKGVFDCRTNVLGHLQQGGAPTPFDRNYGTKLGVKAMLWLSEKLREVYRKGRVFANAPDSACVIGLKKKAVAFSPVTELKKDTDFEHRMPREQWWLSLRLMLKMLAQYRISMAAYVSGELEHVTRRTLSMDKGF
glycosylation of PFK1 mutant [3]: abolished
PFK1 activity versus F-2,6-BP concentration ([4]; 3 mM ATP (FIG. 19)): impaired at lower F-2,6-BP concentrations
